Paper PMC4938167, “Structural Insights into the Polyphyletic Origins of Glycyl tRNA Synthetases*^([image sbox.jpg])^♦” (The Journal of Biological Chemistry, 2016)

Assays:
α-AaGlyRS = molecular target: T1, α-AaGlyRS (Aquifex aeolicus, UniProt O67081); assay: thermal shift assay, SYPRO Orange; type: binding; details: 8 mM GSAd; reference Tm without ligand 83.2 °C; 25 mM NaH2PO4, 25 mM KCl, 10 mM MgCl2
T1 construct: gene glyQ; alpha subunit alone of alpha2beta2 GlyRS; synthetic codon-optimised gene in pET-28, N-terminal His6 (His tag/TEV residues kept), E. coli BL21(DE3)

purified protein = substrate: NCC(=O)O; assay: purified protein; type: biochemical, Aquifex aeolicus; details: 0.5 mM ATP, 10 mM MgCl2, 50 mM Tris pH 8.0, 50 mM KCl, 45 °C, 40 μM enzyme, alpha subunit alone
[1] = molecular target: the molecule itself; assay: SEC-MALS; Superdex S-75 10/300 analytical column, 0.5 ml/min, DAWN Heleos-II and Optilab RI detectors; protein loaded after concentration to 15 mg/ml; one peak with 99.9% of the injected mass

Tm with 8 mM ligand (α-AaGlyRS) | Molecule | Km (purified protein) | kcat (purified protein) | stoichiometry N [1]
92.3 °C | NCC(=O)NS(=O)(=O)OC[C@H]1O[C@@H](n2cnc3c(N)ncnc32)[C@H](O)[C@@H]1O [GSAd, 5′-O-[N-(L-glycyl)sulfamoyl] adenosine] |  |  | 
 | α-subunit of the α2β2 glycyl tRNA synthetase (GlyRS) from Aquifex aeolicus (enzyme, Glycyl tRNA synthetase α-subunit, Aquifex aeolicus; synthetic cDNA (Genscript), codon-optimised for E. coli, in pET-28; No cleavage of the tag is described; The theoretical mass of the dimer is printed as 67.4 kDa; Crystals were soaked with the glycyl adenylate analog GSAd; also called α-AaGlyRS; α-subunit GlyRS; source: E. coli BL21(DE3), purified (heat treatment 75 °C, Ni2+-Sepharose, size …)) MYFQDIIMTLHKFWAEKGCLIWQPYDVEVGAGTMNPATFLKVLGKKPWNVAYVEPSRRPQDGRYGENPNRLQHYYQFQVILKPAPRNPQEIYLESLERLGINPLEHDIRFVEDDWESPTLGAWGLGWEVWLDGMEITQFTYFQQAGGLDLDEISVEITYGLERIAMYIQDKDSVFDIEWKEGITYGEIFKRSEWEWSKYNFELADTDMLFQVYEMFEKESKRMVEEGLIFPAYDYLLKCSHVFNILDARGAISVQERARYIRRMNNLAREIAKLYLQVFENVGAT | 110 ± 16 µM | 0.00023 s⁻¹ | 2
